From paper PMC4449314
Where two headings read alike, the source gives them in different places.

Legend:
Experiment in all cases: non-reducing SDS-PAGE of disulfide-linked products after anti-HA IP
[1] = molecular target: HA-tagged human DAP12 aspartic acid-to-alanine mutant (human)
[2] = molecular target: HA-tagged human DAP12 aspartic acid-to-asparagine mutant (human)
[3] = molecular target: HA-tagged human DAP12 aspartic acid-to-asparagine mutant (human); remark: listed apart in the source
[4] = molecular target: HA-tagged human DAP12 aspartic acid-to-glutamic acid mutant (human)
[5] = molecular target: HA-tagged human DAP12 aspartic acid-to-glutamine mutant (human)
[6] = molecular target: HA-tagged human DAP12 threonine-to-alanine mutant (human)

HA-tagged human DAP12 aspartic acid-to-alanine mutant (natural protein)
fold reduction of tetramer compared to WT [1]: 2 fold
fold reduction of trimer compared to WT [1]: 10 fold
stoichiometry N [1]: 2

HA-tagged human DAP12 aspartic acid-to-asparagine mutant (natural protein)
stoichiometry N [2]: 2
stoichiometry N [3]: 3

HA-tagged human DAP12 aspartic acid-to-glutamic acid mutant (natural protein)
stoichiometry N [4]: 2

HA-tagged human DAP12 aspartic acid-to-glutamine mutant (natural protein)
stoichiometry N [5]: 2

HA-tagged human DAP12 threonine-to-alanine mutant (natural protein)
fold decrease of trimer compared to WT [6]: 5 fold
fold increase of tetramer compared to WT [6]: 2 fold
stoichiometry N [6]: 2
